Assay results from patent US20180057551A1 (AMYLONIX, published 2018).

Biological target: T1, anti-ABD goat antibody (produced in-house)
T1 construct: also called Anti-ABD surface
Test: SPR Biacore 2000, periplasmic sample over immobilised anti-ABD goat antibody
Description: A selection of Aβ peptide binding polypeptides was subjected to an analysis of the response against biotinylated hAβ₁₋₄₀ using a Biacore 2000 instrument (GE Healthcare). Biotinylated anti-ABD goat antibody (produced in-house) and N-terminally biotinylated hAβ₁₋₄₀ (AnaSpec cat. no. AS-24648) were immobilized in separate flow cells on a streptavidin coated chip (Biacore Sensor Chip SA, cat. no. BR100032) using HBS-EP as running buffer (0.01 M HEPES pH 7.4, 0.15 M NaCl, 3 mM EDTA, 0.005% v/v Surfactant P20, GE Healthcare, cat. no. BR100188). The ligand immobilization levels on the surfaces were approximately 2000 RU for the anti-ABD antibody and 225 RU for hAβ₁₋₄₀. One flow cell surface on the chip was used as blank during analyte injections. HBS-EP was used as running buffer and the flow rate was 25 μl/min. The analytes, i.e. periplasmic preparations of Aβ peptide binding polypeptides as described above, were each diluted 15× in HBS-EP buffer and injected for 10 min, followed by dissociation in running buffer for 5 min. After dissociation, the surfaces were regenerated with 2 pulses of 10 mM glycin pH 2.0. […]
The interactions of a subset of Z variants with anti-ABD goat antibody and hAβ₁₋₄₀ were analyzed in a Biacore instrument by injecting dilutions of periplasmic samples.

- Response RU: 19.8 RU
B1: albumin binding domain GA3 from streptococcal Protein G (ABD), periplasmic control (other)
chain: LAEAKVLANRELDKYGVSDYYKNLINNAKTVEGVKALIDEILAALP
notes: periplasm containing ABD only; also called negative control; blank control
